In the data set the test system is NusA-Notch fusion protein (NusA fused to mouse Notch-1 N1703-D1860 with C-terminal Flag and 8His tags), uncleaved.

Consider “solubilized gamma-secretase from HeLa cells”, for which the “apparent Km for hydrolysis (Notch cleavage ELISA)” value was “about 0.7 µM” and the “specific cleavage at the 1743-1744 junction” value is recorded as “γ-secretase activity from HeLa cells specifically cleaves the Notch protein at the 1743-1744 junction”.

The values above are taken from US20110098227.
